# Like-named read-outs stand apart in the source and are kept apart here.
# B1: H4.H12 (peptide)
# peptide: AAAHFVAAWTLHAAA
# B2: H4.F9.E14 (peptide)
# peptide: AAAHFVAAFTLKAEA
# B3: F4.N9.D14 (peptide)
# peptide: AAAFFVAANTLKADA
# B4: N4.Y9.H12 (peptide)
# peptide: AAANFVAAYTLHAAA
# B5: F4.N9.H12 (peptide)
# peptide: AAAFFVAANTLHAAA
# B6: Y4.F9.H12 (peptide)
# peptide: AAAYFVAAFTLHAAA
# B7: SEQ ID NO: 4 (peptide)
# peptide: AAAKFVAAWTLKAAA
# B8: H4.N9.H12 (peptide)
# peptide: AAAHFVAANTLHAAA
# B9: Y4.H12 (peptide)
# peptide: AAAYFVAAWTLHAAA
# B10: E4.H12 (peptide)
# peptide: AAAEFVAAWTLHAAA
# B11: Y4.N9.H12 (peptide)
# peptide: AAAYFVAANTLHAAA
# B12: E4.Y9.H12 (peptide)
# peptide: AAAEFVAAYTLHAAA
# B13: W4.N9.H12 (peptide)
# peptide: AAAWFVAANTLHAAA
# Key:
# Assay in all cases: binding to purified HLA
# DRB1*0701 [1] = biological target: DRB1*0701
# DRB1*1302 [2] = biological target: DRB1*1302
# DRB1*0404 [3] = biological target: DRB1*0404
# DRB1*0901 [4] = biological target: DRB1*0901
# DRB4*0101 [5] = biological target: DRB4*0101
# DRB1*0301 [6] = biological target: DRB1*0301
# DRB1*0401 [7] = biological target: DRB1*0401
# DRB1*0802 [8] = biological target: DRB1*0802
# DRB5*0101 [9] = biological target: DRB5*0101
# DRB1*1501 [10] = biological target: DRB1*1501
# DRB1*0405 [11] = biological target: DRB1*0405
# DRB1*0101 [12] = biological target: DRB1*0101
# DRB1*1101 [13] = biological target: DRB1*1101
# DRB1*0701 [14] = biological target: DRB1*0701; remark: listed apart in the source
# DRB1*1302 [15] = biological target: DRB1*1302; remark: listed apart in the source
# DRB1*0404 [16] = biological target: DRB1*0404; remark: listed apart in the source
# DRB1*0901 [17] = biological target: DRB1*0901; remark: listed apart in the source
# DRB4*0101 [18] = biological target: DRB4*0101; remark: listed apart in the source
# DRB1*0301 [19] = biological target: DRB1*0301; remark: listed apart in the source
# DRB1*0401 [20] = biological target: DRB1*0401; remark: listed apart in the source
# DRB1*0802 [21] = biological target: DRB1*0802; remark: listed apart in the source
# DRB5*0101 [22] = biological target: DRB5*0101; remark: listed apart in the source
# DRB1*1501 [23] = biological target: DRB1*1501; remark: listed apart in the source
# DRB1*0405 [24] = biological target: DRB1*0405; remark: listed apart in the source
# DRB1*0101 [25] = biological target: DRB1*0101; remark: listed apart in the source
# DRB1*1101 [26] = biological target: DRB1*1101; remark: listed apart in the source
Binder,IC50 (DRB1*0701 [1]),IC50 (DRB1*1302 [2]),IC50 (DRB1*0404 [3]),IC50 (DRB1*0901 [4]),IC50 (DRB4*0101 [5]),IC50 (DRB1*0301 [6]),IC50 (DRB1*0401 [7]),IC50 (DRB1*0802 [8]),IC50 (DRB5*0101 [9]),IC50 (DRB1*1501 [10]),IC50 (DRB1*0405 [11]),IC50 (DRB1*0101 [12]),IC50 (DRB1*1101 [13]),IC50 (DRB1*0701 [14]),IC50 (DRB1*1302 [15]),IC50 (DRB1*0404 [16]),IC50 (DRB1*0901 [17]),IC50 (DRB4*0101 [18]),IC50 (DRB1*0301 [19]),IC50 (DRB1*0401 [20]),other results
B1,53 nM,1190 nM,2.5 nM,21 nM,267 nM,198 nM,2.5 nM,9.3 nM,23 nM,12 nM,12 nM,4.2 nM,14 nM,–,–,–,–,–,–,–,–
B2,–,–,–,–,–,–,–,–,–,–,–,–,–,49 nM,801 nM,8.1 nM,46 nM,526 nM,855 nM,6.4 nM,IC50 (DRB1*0802 [21]): 19 nM; IC50 (DRB5*0101 [22]): 19 nM; IC50 (DRB1*1501 [23]): 31 nM; IC50 (DRB1*0405 [24]): 8.1 nM; IC50 (DRB1*0101 [25]): 6.8 nM; IC50 (DRB1*1101 [26]): 41 nM
B3,74 nM,187 nM,4.5 nM,18 nM,5520 nM,140 nM,4 nM,16 nM,4.4 nM,103 nM,9.5 nM,3.4 nM,46 nM,–,–,–,–,–,–,–,–
B4,–,–,–,–,–,–,–,–,–,–,–,–,–,67 nM,1420 nM,5.2 nM,25 nM,567 nM,171 nM,1.8 nM,IC50 (DRB1*0802 [21]): 7.5 nM; IC50 (DRB5*0101 [22]): 20 nM; IC50 (DRB1*1501 [23]): 4.2 nM; IC50 (DRB1*0405 [24]): 19 nM; IC50 (DRB1*0101 [25]): 2.7 nM; IC50 (DRB1*1101 [26]): 16 nM
B5,82 nM,64 nM,4.1 nM,31 nM,876 nM,286 nM,3.8 nM,28 nM,26 nM,70 nM,27 nM,6.5 nM,42 nM,–,–,–,–,–,–,–,–
B6,78 nM,2560 nM,0.67 nM,13 nM,81 nM,126 nM,1 nM,5.9 nM,18 nM,16 nM,4.4 nM,3.4 nM,17 nM,–,–,–,–,–,–,–,–
B7,49 nM,648 nM,2.9 nM,28 nM,207 nM,209 nM,2.6 nM,5.2 nM,5.4 nM,9.8 nM,25 nM,3.3 nM,11 nM,–,–,–,–,–,–,–,–
B8,–,–,–,–,–,–,–,–,–,–,–,–,–,76 nM,47 nM,6.8 nM,37 nM,862 nM,361 nM,4.5 nM,IC50 (DRB1*0802 [21]): 17 nM; IC50 (DRB5*0101 [22]): 33 nM; IC50 (DRB1*1501 [23]): 79 nM; IC50 (DRB1*0405 [24]): 18 nM; IC50 (DRB1*0101 [25]): 4.1 nM; IC50 (DRB1*1101 [26]): 22 nM
B9,55 nM,1560 nM,2.6 nM,18 nM,279 nM,119 nM,2.6 nM,9.7 nM,15 nM,16 nM,6.9 nM,3.7 nM,18 nM,–,–,–,–,–,–,–,–
B10,–,–,–,–,–,–,–,–,–,–,–,–,–,97 nM,1150 nM,4.1 nM,44 nM,350 nM,134 nM,3.1 nM,IC50 (DRB1*0802 [21]): 24 nM; IC50 (DRB5*0101 [22]): 48 nM; IC50 (DRB1*1501 [23]): 51 nM; IC50 (DRB1*0405 [24]): 27 nM; IC50 (DRB1*0101 [25]): 5.1 nM; IC50 (DRB1*1101 [26]): 38 nM
B11,49 nM,54 nM,5.2 nM,21 nM,703 nM,130 nM,3.3 nM,12 nM,16 nM,53 nM,13 nM,4.5 nM,14 nM,–,–,–,–,–,–,–,–
B12,–,–,–,–,–,–,–,–,–,–,–,–,–,161 nM,1450 nM,3.2 nM,28 nM,448 nM,144 nM,2.3 nM,IC50 (DRB1*0802 [21]): 13 nM; IC50 (DRB5*0101 [22]): 52 nM; IC50 (DRB1*1501 [23]): 6.9 nM; IC50 (DRB1*0405 [24]): 17 nM; IC50 (DRB1*0101 [25]): 3.9 nM; IC50 (DRB1*1101 [26]): 27 nM
B13,43 nM,38 nM,5.5 nM,33 nM,606 nM,174 nM,2.9 nM,8.6 nM,22 nM,101 nM,21 nM,3.8 nM,16 nM,–,–,–,–,–,–,–,–
